“Also recorded” adds a separate entry of the source.
Legend:
α5GABAARs [1] = biological target: T1, α5GABAARs (Mus musculus, UniProt P22723+Q8BHJ7); test: Fear conditioning after IL-1β or LPS injection; format: in vivo, mice; conditions: for contextual fear memory, WT mice (in words): IL-1β 1 μg kg^−1 i.p. or LPS 125 μg kg^−1 i.p. 3 h before conditioning, inverse agonist co-administered; for cued fear memory to a conditioned tone stimulus (in words): mouse, in vivo
Procedure: Pavlovian fear-conditioning tasks were used for behavioral analysis^29. LPS (125 μg kg^−1, i.p., with physiological saline as the vehicle control) or IL-1β (1 μg kg^−1, i.p., with 0.1% bovine serum albumin as the vehicle control) was injected into male 3- to 4-month-old WT and Gabra5−/− mice 3 h before conditioning. The intensity of the electric footshock was 0.5 mA. For some mice, the inverse agonist L-655,708 (0.35 or 0.5 mg kg^−1, i.p.) or vehicle control (10% DMSO, i.p.) was injected 30 min before training. The movement of the mouse was monitored. The percentage of time that each mouse spent in a freezing position was determined using FreezeView software (Version 2.26, Actimetrics Inc, Wilmette, Ill., USA).
We have determined that IL-1β-induced impairment of contextual fear memory can be reversed by pharmacological inhibition of α5GABAA receptors by the inverse agonist MRK-016. Fear conditioning was performed 3 h after injection of IL-1β (1 μg kg^−1, i.p.) in both wild-type (WT) and α5GABAA receptor knock out (Gabra5−/−) mice. Mice were trained to associate a context (contextual fear) and a tone (cued fear) with an aversive electric footshock. 24 h after conditioning each mouse was placed in the training context, and contextual fear memory was measured as the percentage of time spent freezing. Cued fear memory was measured 48 h after training as the percentage of time spent freezing to the conditioned auditory tone in a novel context.

[2] = biological target: T2, GABAA receptor α5-subtype (Homo sapiens, UniProt P18507+P31644); conditions: inverse agonist selective for the α5-subtype; cited from earlier work
T2 sequence (P31644 32-462): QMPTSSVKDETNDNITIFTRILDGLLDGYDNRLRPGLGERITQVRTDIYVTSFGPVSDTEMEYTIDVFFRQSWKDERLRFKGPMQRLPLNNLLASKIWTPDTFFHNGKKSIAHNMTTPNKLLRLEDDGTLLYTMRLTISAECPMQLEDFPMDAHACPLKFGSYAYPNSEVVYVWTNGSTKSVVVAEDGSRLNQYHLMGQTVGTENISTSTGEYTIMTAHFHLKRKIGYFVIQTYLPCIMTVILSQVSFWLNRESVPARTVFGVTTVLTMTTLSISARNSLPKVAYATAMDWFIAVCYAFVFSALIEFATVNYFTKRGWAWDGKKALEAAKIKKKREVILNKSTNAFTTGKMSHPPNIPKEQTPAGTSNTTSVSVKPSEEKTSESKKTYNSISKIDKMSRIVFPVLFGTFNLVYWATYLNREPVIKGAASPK
T2 sequence (P28472 26-473 partner): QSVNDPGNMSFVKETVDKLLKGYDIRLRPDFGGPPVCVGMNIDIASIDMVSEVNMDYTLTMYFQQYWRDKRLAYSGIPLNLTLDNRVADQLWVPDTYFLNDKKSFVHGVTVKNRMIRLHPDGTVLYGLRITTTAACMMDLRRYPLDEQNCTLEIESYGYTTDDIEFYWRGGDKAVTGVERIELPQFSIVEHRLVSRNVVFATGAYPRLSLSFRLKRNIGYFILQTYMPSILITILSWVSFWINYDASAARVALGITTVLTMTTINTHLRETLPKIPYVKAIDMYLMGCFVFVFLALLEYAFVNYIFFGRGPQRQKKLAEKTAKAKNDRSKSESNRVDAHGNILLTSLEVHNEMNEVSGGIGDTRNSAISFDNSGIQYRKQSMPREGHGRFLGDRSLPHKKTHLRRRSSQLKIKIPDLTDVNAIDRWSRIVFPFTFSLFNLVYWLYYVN
T2 sequence (P18507 40-467 limits assumed): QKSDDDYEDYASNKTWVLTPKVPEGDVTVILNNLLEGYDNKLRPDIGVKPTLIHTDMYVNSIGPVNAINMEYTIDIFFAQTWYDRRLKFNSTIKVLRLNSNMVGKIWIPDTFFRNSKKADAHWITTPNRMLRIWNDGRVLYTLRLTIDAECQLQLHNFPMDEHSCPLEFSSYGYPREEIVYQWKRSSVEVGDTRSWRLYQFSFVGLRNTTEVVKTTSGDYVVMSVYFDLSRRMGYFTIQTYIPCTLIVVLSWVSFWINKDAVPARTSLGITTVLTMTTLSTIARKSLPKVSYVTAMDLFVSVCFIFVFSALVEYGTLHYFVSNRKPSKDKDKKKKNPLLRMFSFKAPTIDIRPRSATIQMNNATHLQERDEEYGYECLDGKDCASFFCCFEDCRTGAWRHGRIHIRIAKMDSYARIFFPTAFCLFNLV

α5GABAARs [3] = biological target: T1, α5GABAARs; test: Tonic inhibitory current, whole cell voltage-clamp in cultured hippocampal neurons; format: cell-based, mice; design: endogenous in cells; host or cells: primary embryonic mouse hippocampal neurons, alone or co-cultured with cortical microglia; conditions: for effect on the tonic current (in words): cultured hippocampal neurons
synaptic GABAARs = test: Miniature inhibitory postsynaptic currents (mIPSCs) in cultured hippocampal neurons; format: cell-based, mice; conditions: IL-1β 20 ng ml^−1
postsynaptic GABAARs = test: Whole-cell currents evoked by exogenous GABA (10 μM) in cultured hippocampal neurons; format: cell-based, mice; conditions: IL-1β 20 ng ml−1; GABA 10 μM; n=9
α5GABAARs [4] = test: Tonic current in ex vivo hippocampal slices (CA1 pyramidal neurons); format: cell-based; conditions: slices from WT mice treated with IL-1β 1 μg kg^−1 i.p. 2-3 h before sacrifice, n=6
Procedure: Recordings were performed as previously described^29. Hippocampal slices ([…]) were prepared from male 3- to 4-week-old WT mice with a mixed genetic background (C57BL/6/SvEv129). Mice were injected with vehicle (0.1% bovine serum albumin, i.p.) or IL-1β ([…], i.p.) 2-3 hours before sacrifice. To record the tonic GABAergic current, […] GABA was added, and the GABAAR competitive antagonist Bic ([…]) was applied to reveal the tonic current. All cells were recorded at a holding potential of −60 mV.

α1 subunit of GABAARs = test: Hippocampal slice cell surface biotinylation assay; format: cell-based, C57BL/6 mice; conditions: IL-1β 20 ng ml−1, 40 min, n=5
Procedure: (§1) Cell surface biotinylation assay for α5 and α1 subunits of GABAARs was performed as previously described^25. Hippocampal slices ([…]) from male 10- to 14-week-old C57BL/6 mice were treated with IL-1β (20 ng ml^1, 40 min). Anti-GABAAR α1 and α5 antibodies were obtained from PhosphoSolutions (Aurora, Calif., USA).

α5 subunit of GABAARs = test: Hippocampal slice cell surface biotinylation assay; format: cell-based, C57BL/6 mice
Procedure: as §1

T1 sequence (Q8BHJ7 32-463 limits assumed): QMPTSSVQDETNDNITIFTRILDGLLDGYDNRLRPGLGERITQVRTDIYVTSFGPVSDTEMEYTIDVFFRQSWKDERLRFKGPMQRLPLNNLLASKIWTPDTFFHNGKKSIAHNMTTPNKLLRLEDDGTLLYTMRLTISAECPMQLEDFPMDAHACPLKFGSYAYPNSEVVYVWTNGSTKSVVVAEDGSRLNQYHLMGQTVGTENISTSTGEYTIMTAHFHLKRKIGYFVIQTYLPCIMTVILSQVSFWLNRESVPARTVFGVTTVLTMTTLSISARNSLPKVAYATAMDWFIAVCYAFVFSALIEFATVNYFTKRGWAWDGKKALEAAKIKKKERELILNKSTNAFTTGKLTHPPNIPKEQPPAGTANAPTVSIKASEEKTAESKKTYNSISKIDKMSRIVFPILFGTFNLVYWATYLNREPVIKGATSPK
T1 sequence (P63080 26-473 partner): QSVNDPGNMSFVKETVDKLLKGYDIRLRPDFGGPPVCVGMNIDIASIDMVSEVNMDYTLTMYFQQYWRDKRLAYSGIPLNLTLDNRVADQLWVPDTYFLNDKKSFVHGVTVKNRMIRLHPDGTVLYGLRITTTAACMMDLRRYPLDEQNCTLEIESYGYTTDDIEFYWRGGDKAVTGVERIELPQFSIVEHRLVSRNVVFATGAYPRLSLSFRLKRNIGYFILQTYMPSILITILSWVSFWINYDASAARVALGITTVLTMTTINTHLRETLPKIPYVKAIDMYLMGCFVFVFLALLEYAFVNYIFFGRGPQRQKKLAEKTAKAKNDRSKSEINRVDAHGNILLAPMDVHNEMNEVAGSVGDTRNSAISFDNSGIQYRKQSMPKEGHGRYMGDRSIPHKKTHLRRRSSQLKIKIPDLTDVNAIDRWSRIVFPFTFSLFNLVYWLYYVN
T1 sequence (P22723 39-474): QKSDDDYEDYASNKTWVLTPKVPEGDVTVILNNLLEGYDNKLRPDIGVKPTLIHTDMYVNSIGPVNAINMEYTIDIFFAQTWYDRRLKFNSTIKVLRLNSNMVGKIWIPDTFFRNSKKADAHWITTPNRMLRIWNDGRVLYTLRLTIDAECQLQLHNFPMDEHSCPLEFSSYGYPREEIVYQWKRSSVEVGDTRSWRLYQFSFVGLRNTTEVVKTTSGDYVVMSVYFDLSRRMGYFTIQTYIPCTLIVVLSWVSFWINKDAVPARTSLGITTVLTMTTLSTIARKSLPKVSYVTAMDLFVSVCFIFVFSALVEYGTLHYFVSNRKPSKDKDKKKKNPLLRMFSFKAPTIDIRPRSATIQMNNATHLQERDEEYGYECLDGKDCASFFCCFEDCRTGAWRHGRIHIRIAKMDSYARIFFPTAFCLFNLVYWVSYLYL

Cc1cc(-c2nncc3c(C(C)(C)C)c(OCc4ncnn4C)nn23)no1 [MRK-016, 3-(1,1-Dimethylethyl)-7-(5-methyl-3-isoxazolyl)-2-[(1-methyl-1H-1,2,4-triazol-5-yl)methoxy]-pyrazolo[1,5-d][1,2,4]triazine]
contextual fear memory, WT mice (in words) (α5GABAARs [1]): restored freezing scores for contextual fear memory to control values | contextual fear memory, WT mice (in words) (α5GABAARs [1]; listed as MRK-016A): reverses memory deficits associated with inflammation | cued fear memory to a conditioned tone stimulus (in words) (α5GABAARs [1]): did not affect freezing to a conditioned tone stimulus | EC50 [2]: 3 nM | effect on the tonic current (in words) (α5GABAARs [3]): inhibited the tonic current; also recorded: blocks the tonic inhibitory current in hippocampal neurons from mice

B1: IL-1β: pro-inflammatory cytokine interleukin-1β; recombinant mouse IL-1β; IL-13 and IL-β in b369 are misprints (protein, UniProt P10749 118-269, looked up)
Interleukin-1 beta: VPIRQLHYRLRDEQQKSLVLSDPYELKALHLNGQNINQQVIFSMSFVQGEPSNDKIPVALGLKGKNLYLSCVMKDGTPTLQLESVDPKQYPKKKMEKRFVFNKIEVKSKVEFESAEFPNWYISTSQAEHKPVFLGNNSGQDIIDFTMESVSS
reduction of the amplitude of the mIPSCs (synaptic GABAARs): 17.3%±3.1% | reduction of the charge transfer of the mIPSCs (synaptic GABAARs): 22.2%±7.0% | mIPSC Amplitude (synaptic GABAARs; IL-1ra 250 ng ml^−1, mean ± S.E.M., n = 6): 24.7 ± 2.1 pA | mIPSC Area (synaptic GABAARs; IL-1ra 250 ng ml^−1, n = 6): 279.0 pA · ms | mIPSC Decay time (synaptic GABAARs; IL-1ra 250 ng ml^−1, n = 6): 14.8 ± 1.1 ms | mIPSC Frequency (synaptic GABAARs; IL-1ra 250 ng ml^−1, n = 6): 3.7 ± 2.3 Hz | mIPSC Rise time (synaptic GABAARs; IL-1ra 250 ng ml^−1, n = 6): 2.4 ± 0.1 ms | inhibition of the GABA-evoked peak current (postsynaptic GABAARs): 27.8%±2.2% | inhibition of the GABA-evoked steady-state current (postsynaptic GABAARs): 12.7%±1.5% | tonic current (α5GABAARs [4]): 44.9±9.4 pA | surface expression of α1 subunits (in words) (α1 subunit of GABAARs): caused no increase in the surface expression of α1 subunits | α5 subunits expressed on the surface of the neurons (α5 subunit of GABAARs; IL-1β 20 ng ml−1, 40 min, n=3): 183.3%±29.6% | surface expression of α5GABAARs (in words) (α5 subunit of GABAARs; IL-1β 20 ng/ml for 20 or 40 min, preliminary study): dramatically increases the surface expression of α5GABAARs | contextual fear memory, Gabra5−/− mice (in words) (α5GABAARs [1]; IL-1β 1 μg kg^−1 i.p. or LPS 125 μg kg^−1 i.p.): exhibited no such deficits | contextual fear memory, WT mice (in words) (α5GABAARs [1]): showed impairment of contextual fear memory | cued fear memory to a conditioned tone stimulus (in words) (α5GABAARs [1]): cued fear memory to a conditioned tone stimulus was not affected by IL-1β | increase of the amplitude of the tonic current (α5GABAARs [3]; 20 ng ml^−1 for 20 min): 45% | tonic current density (α5GABAARs [3]; IL-1β 20 ng ml^−1 20 min with or without SB203,580 20 μM 30 min): 1.4±0.1 pA pF^−1 | variance of the noise (root mean square deviation) (α5GABAARs [3]; IL-1β 20 ng ml^−1 for 20 min, n=22): 9.8±0.7 pA | tonic current density (α5GABAARs [3]; IL-1β 20 ng ml^−1 for 20 min, revealed by bicuculline 100 μM, n=22): 1.6±0.1 pA pF^−1 | tonic current density (α5GABAARs [3]; IL-1β 60 ng ml^−1 for 3 h, n=6): 2.0±0.3 pA pF^−1 | tonic current density (α5GABAARs [3]; IL-1β for 12-15 h, n=21): 1.3±0.6 pA pF^−1 | effect on the tonic current (in words) (α5GABAARs [3]): increased the amplitude of the tonic current; also recorded: increased the tonic current recorded in wild-type (WT) neurons but not in neurons isolated from Gabra5−/− mice

— US9517265B2, “Methods for the prevention and/or treatment of memory impairment” (The Governing Council of the University of Toronto, priority 2010, dated 2016)
